Results from patent US20080020978A1 (Amgen, published 2008).
Square brackets hold non-standard residues; d marks the D form. octavalent 20 kDa PEG = 20 kDa PEG with eight arms, each linked to one peptide copy through Cys; tetravalent 20 kDa PEG = 20 kDa PEG with four arms, each linked to one peptide copy through Cys; trivalent 20 kDa PEG = 20 kDa PEG with three arms, each linked to one peptide copy through Cys; 3IPA = not defined here

Target: CGRP1 receptor (CRLR/RAMP1 complex) of human neuroblastoma SK-N-MC cells (human, UniProt Q16602 23-461; O60894 27-148)
Test: cell-based or functional assay

Chain of CGRP1 receptor (CRLR/RAMP1 complex) of human neuroblastoma SK-N-MC cells (Q16602 23-461, chain 1 of 2): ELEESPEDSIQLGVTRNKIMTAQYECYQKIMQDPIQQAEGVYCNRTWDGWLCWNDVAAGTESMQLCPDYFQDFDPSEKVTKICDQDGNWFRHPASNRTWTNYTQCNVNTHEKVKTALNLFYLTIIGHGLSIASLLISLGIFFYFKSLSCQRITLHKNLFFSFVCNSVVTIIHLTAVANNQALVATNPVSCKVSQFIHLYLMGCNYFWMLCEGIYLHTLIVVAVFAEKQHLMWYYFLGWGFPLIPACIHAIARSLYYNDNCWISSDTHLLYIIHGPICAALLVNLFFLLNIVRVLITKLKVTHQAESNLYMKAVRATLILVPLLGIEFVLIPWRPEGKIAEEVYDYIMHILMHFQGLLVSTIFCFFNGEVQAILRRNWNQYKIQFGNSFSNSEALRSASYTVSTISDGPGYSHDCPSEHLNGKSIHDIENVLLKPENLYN
Chain of CGRP1 receptor (CRLR/RAMP1 complex) of human neuroblastoma SK-N-MC cells (O60894 27-148, chain 2 of 2): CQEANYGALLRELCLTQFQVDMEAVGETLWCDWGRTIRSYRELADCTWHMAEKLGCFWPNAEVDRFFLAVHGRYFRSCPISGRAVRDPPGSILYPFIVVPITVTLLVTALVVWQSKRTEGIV

## Ac-WVTHRLAGLLSRSGGVVRC(20 kDa branched MeO‑PEG2)NFVPTDVGPFAF-NH2 [SEQ ID NO 770]
  IC50: 0.17 nM

## Ac-WVTHRLAGLLSRSGGVVRC(20 kDa NEM‑PEG)NFVPTDVGPFAF-NH2 [SEQ ID NO 771]
  IC50: 0.3 nM

## Ac-WVTHRLAGLLSASGGVVRCNFVPTDVGPFAF-NH2 [SEQ ID NO 772]
  IC50: 2.75 nM

## Ac-WVTHRLAGLLSASGGVVRC(20 kDa MeO‑PEG)NFVPTDVGPFAF-NH2 [SEQ ID NO 773]
  IC50: 6.2 nM

## Ac-WVTHRLAGLLSQSGGVVRC(20 kDa MeO‑PEG)NFVPTDVGPFAF-NH2 [SEQ ID NO 775]
  IC50: 4.69 nM

B1: SEQ ID NO 776 (peptide)
peptide: Ac-WVTHRLAGLLS[dR]SGGVVRCNFVPTDVGPFAF-NH2
SMILES: CC(=O)N[C@@H](Cc1c[nH]c2ccccc12)C(=O)N[C@H](C(=O)N[C@H](C(=O)N[C@@H](Cc1c[nH]cn1)C(=O)N[C@@H](CCCNC(=N)N)C(=O)N[C@@H](CC(C)C)C(=O)N[C@@H](C)C(=O)NCC(=O)N[C@@H](CC(C)C)C(=O)N[C@@H](CC(C)C)C(=O)N[C@@H](CO)C(=O)N[C@H](CCCNC(=N)N)C(=O)N[C@@H](CO)C(=O)NCC(=O)NCC(=O)N[C@H](C(=O)N[C@H](C(=O)N[C@@H](CCCNC(=N)N)C(=O)N[C@@H](CS)C(=O)N[C@@H](CC(N)=O)C(=O)N[C@@H](Cc1ccccc1)C(=O)N[C@H](C(=O)N1CCC[C@H]1C(=O)N[C@H](C(=O)N[C@@H](CC(=O)O)C(=O)N[C@H](C(=O)NCC(=O)N1CCC[C@H]1C(=O)N[C@@H](Cc1ccccc1)C(=O)N[C@@H](C)C(=O)N[C@@H](Cc1ccccc1)C(N)=O)C(C)C)[C@@H](C)O)C(C)C)C(C)C)C(C)C)[C@@H](C)O)C(C)C
  IC50: 0.59 nM

## Ac-WVTHRLAGLLS[dR]SGGVVRC(MeO‑PEG 20 kDa)NFVPTDVGPFAF-NH2 [SEQ ID NO 777]
  IC50: 19.4 nM

B2: SEQ ID NO 778 (peptide)
peptide: {Ac-3IPA}-VTHRLAGLLSRSGGVVRCNFVPTDVGPFAF-NH2
modifications: reading uncertain; also: places 3IPA at position 1, printed as Ac-[3IPA]-VTHRLAGLLSRSGGVVRCNFVPTDVGPFAF-amide
  IC50: 0.35 nM

B3: SEQ ID NO 779 (peptide)
peptide: {Ac-3IPA}-VTHRLAGLLSRSGGVVRC(20 kDa MeO‑PEG)NFVPTDVGPFAF-NH2
modifications: reading uncertain; also: places 3IPA at position 1, printed as Ac-[3IPA]-VTHRLAGLLSRSGGVVRC^(20 kDa MeO-PEG)NFVPTDVGPFAF-amide
  IC50: 2.22 nM

## Ac-WVTHRLAGLLSRSGGVVRC(trivalent 20 kDa PEG)NFVPTDVGPFAF-NH2 (also: trivalent PEG joins three peptide copies) [SEQ ID NO 781]
  IC50: 0.19 nM

## Ac-WVTHRLAGLLSRSGGVVRC(tetravalent 20 kDa PEG)NFVPTDVGPFAF-NH2 (also: tetravalent PEG joins four peptide copies) [SEQ ID NO 782]
  IC50: 0.08 nM

## Ac-WVTHRLAGLLSRSGGVVRC(octavalent 20 kDa PEG)NFVPTDVGPFAF-NH2 (also: eight peptides linked via Cys to one octavalent 20 kDa PEG) [SEQ ID NO 783]
  IC50: 1.4 nM

## WVTHXLAGLLSXSGGVVRKNFVPTDVGPFAF (Ac-WVTH[hArg]LAGLLS[hArg]SGGVVRKNFVPTDVGPFAF-amide) [SEQ ID NO 784]
  IC50: 2.1 nM
